Series [1] in a line: folding stability dG unfold from chymotrypsin proteolysis; higher = more stable. The method, boiled down: (§1)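 How resistant each design was to proteolysis was captured as K50, inferred by Bayesian fitting of sequencing counts. Unfolding free energy was then derived relative to a sequence-predicted unfolded-state K50 and a shared folded-state K50, per protease or combined. Digestion used trypsin and chymotrypsin at 11 threefold-diluted concentrations plus a no-protease condition, on mini-proteins under 80 residues without cysteine in a PA-tagged cDNA display construct. Designs were kept only when AlphaFold2 dimer inter-PAE was above 15.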

A short description of series [2]: folding stability dG unfold (combined trypsin and chymotrypsin); higher = more stable. The gist of the method:
as §1

Series [3] is described as follows: folding stability dG unfold from trypsin proteolysis; higher = more stable. The gist of the method: as §1

± gives the half width of the 95% confidence interval.

For “SAGGSAGGSANVKLKIDLDPGYGYIKIKLEWEDPGTGNKQEMEITIPIPIPPPPPPPANDKKSAGGSAGGSA [r18_361_TrROS]”, the “folding stability dG unfold” value in series [1] is 2.17 ± 0.11 kcal/mol; in series [2] it was 1.93 ± 0.43 kcal/mol; in series [3] it was 1.12 ± 0.11 kcal/mol.
In the case of “SAGGSAGGSANWKEIDGTLPWGLRVKVWVSPGNGQLMIEIKPVPPPPPPKISPEDADKANADSAGGSAGGSA [r18_236_TrROS]”, the “folding stability dG unfold” value stood at 4.06 ± 0.13 kcal/mol in series [1], 3.39 ± 0.3 kcal/mol in series [2] and 2.31 ± 0.072 kcal/mol in series [3].
For “SAGGSAGGSANWYIRIHSPNGQPIWFPMKIKNVTPKGGEIEFKMRNPNGREMPFRVEIFPLESAGGSAGGSA [r18_163_TrROS]”, in that order: 1.16 ± 0.22 kcal/mol, 0.981 ± 0.13 kcal/mol and 0.752 ± 0.13 kcal/mol.
For “SAGGSAGGSAPDVEVEPFTLPSGEEAVAFRLPDGSRVVLVGDKAVLFYKDGKVEEVPLEEILSAGGSAGGSA [r18_379_TrMRF]”, in that order: 1.78 ± 0.1 kcal/mol, 1.76 ± 0.13 kcal/mol and 1.46 ± 0.042 kcal/mol.
“SAGGSAGGSAPLPPLTPEQVKALVEELKKKGYKVKKVTVVEVNGELYVFVEVDGKLYRIKVSAGGSAGGSAG [r3_395_TrROS_Hall]”: the “folding stability dG unfold” value in series [1] amounted to 4.47 ± 0.12 kcal/mol; in series [2] it was 4.23 ± 0.064 kcal/mol; in series [3], 3.47 ± 0.069 kcal/mol.
For “SAGGSAGGSAPLSLVIDFPSGPATITFLEDGTARITYTDDDKTETIPVADLLKIPADVDPRSAGGSAGGSAG [r3_256_TrMRF]”, in that order: 0.769 ± 0.12 kcal/mol, 0.507 ± 0.091 kcal/mol and 0.0215 ± 0.099 kcal/mol.
As for “SAGGSAGGSAPMEIWVLIDSPEKAKDLAKEIAHELQQSGIKIKVEVEQPPNGYYLVKIRFDSAGGSAGGSAG [r3_211_TrROS]”, the results for the “folding stability dG unfold” value in series [1], in series [2] and in series [3] were 1.81 ± 0.11 kcal/mol, 1.91 ± 0.22 kcal/mol and 1.89 ± 0.14 kcal/mol, respectively.
For “SAGGSAGGSAPPDEGQKWVPVTFPIEFPLPDGNKVKIPIDFWYPKEDGKPIAMQIEWWAKNSAGGSAGGSAG [r3_484_TrROS]”, in that order: 1.42 ± 0.22 kcal/mol, 0.72 ± 0.26 kcal/mol and 0.373 ± 0.13 kcal/mol.
As to “SAGGSAGGSAPPNLKIEIDLQRHPEDDHIFLEMEATYPDDGKELKVMIMINPDDGKIGIMIMSAGGSAGGSA [r18_383_TrROS]”, the “folding stability dG unfold” value in series [1] turned out to be 3.7 ± 0.29 kcal/mol; in series [2], 3.34 ± 0.29 kcal/mol; in series [3], 2.76 ± 0.22 kcal/mol.
For “SAGGSAGGSAPPRRVTIEYDPDSGMFKVKVPGGKEREIEGMPPNQIEEQAKDYGIDRVEIVSAGGSAGGSAG [r3_78_TrROS]”, in that order: -0.286 ± 0.41 kcal/mol, -0.0794 ± 0.18 kcal/mol and 0.205 ± 0.16 kcal/mol.
For “SAGGSAGGSAPPWTRVLGLGTFPPGVPDLPVEVPGGNVYALFTPTEDGSVQVLIVDLIPPLSAGGSAGGSAG [r3_464_TrMRF]”, in that order: 0.965 ± 0.21 kcal/mol, 0.773 ± 0.17 kcal/mol and 0.472 ± 0.1 kcal/mol.
For “SAGGSAGGSAPVLVLETESGVKFETLSLGPGPGALALIVTPDKPALALINLDDPNNIKILASAGGSAGGSAG [r3_450_TrMRF]”, in that order: 0.799 ± 0.11 kcal/mol, 1.18 ± 0.1 kcal/mol and 1.55 ± 0.045 kcal/mol.
As to “SAGGSAGGSAQPIPIKIRIRMRDDGKPQTFTFEVPVKPGATESTILDKIMKKFPGFRHIEIESAGGSAGGSA [r18_195_TrROS]”, the “folding stability dG unfold” value stood at 0.961 ± 0.066 kcal/mol in series [1], 1.06 ± 0.085 kcal/mol in series [2] and 1.06 ± 0.035 kcal/mol in series [3].
For “SAGGSAGGSARTLTLTFLTDSPEVAERFVRELREQKPLRVEASYRRLPDGRYLVTVTIHLDSAGGSAGGSAG [r3_273_TrMRF]”, in that order: 5.14 ± 0.14 kcal/mol, 4.64 ± 0.074 kcal/mol and 3.21 ± 0.084 kcal/mol.
For “SAGGSAGGSASIEVAAPPDATVTITTEITRKLPAGAKLPNGVVASADETLKETVTTTITVLGSAGGSAGGSA [r18_450_JUSTAS]”, in that order: 0.817 ± 0.047 kcal/mol, 0.364 ± 0.34 kcal/mol and -0.27 ± 0.29 kcal/mol.

These data come from the supplement of paper PMC12764529.
